Measured values from article PMC9482650, “Quantitative fragmentomics allow affinity mapping of interactomes” (Nature Communications, 2022).

Tests used:
Experiment in all cases: holdup assay
Set-up in all cases: key: below the threshold = too weak to quantify, mostly under pKd 3.1 to 4
[1] = target: TJP1_2, Q07157
[2] = target: LAP2, Q96RT1
[3] = target: T1, MPDZ_5, O75970
T1 sequence (O75970 695-796, limits assumed, looked up): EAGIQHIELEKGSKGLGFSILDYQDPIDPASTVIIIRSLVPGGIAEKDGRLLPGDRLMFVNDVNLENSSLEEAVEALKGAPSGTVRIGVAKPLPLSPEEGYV

[4] = target: T2, NHERF3_3, Q5T2W1
T2 sequence (Q5T2W1 238-333, limits assumed, looked up): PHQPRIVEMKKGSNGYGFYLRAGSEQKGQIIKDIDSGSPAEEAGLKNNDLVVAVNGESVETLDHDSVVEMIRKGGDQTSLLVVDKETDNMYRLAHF

[5] = target: GRID2IP_1, A4D2P6
Sequence of GRID2IP_1, A4D2P6 (A4D2P6 1-87): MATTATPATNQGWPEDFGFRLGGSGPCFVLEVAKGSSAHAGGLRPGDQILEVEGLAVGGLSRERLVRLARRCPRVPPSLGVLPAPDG

[6] = target: GORASP2, Q9H8Y8
[7] = target: T3, HTRA3, P83110
T3 sequence (P83110 354-453, limits assumed, looked up): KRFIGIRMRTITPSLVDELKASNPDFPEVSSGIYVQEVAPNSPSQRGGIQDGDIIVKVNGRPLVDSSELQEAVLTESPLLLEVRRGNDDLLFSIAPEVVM

[8] = target: DLG4_1, P78352
Sequence of DLG4_1, P78352 (P78352 62-152): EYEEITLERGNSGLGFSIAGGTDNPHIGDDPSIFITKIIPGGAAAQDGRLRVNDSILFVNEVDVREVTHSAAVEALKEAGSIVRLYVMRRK

[9] = target: Inadl_5, Q8NI35
Sequence of Inadl_5, Q8NI35 (Q8NI35 673-780): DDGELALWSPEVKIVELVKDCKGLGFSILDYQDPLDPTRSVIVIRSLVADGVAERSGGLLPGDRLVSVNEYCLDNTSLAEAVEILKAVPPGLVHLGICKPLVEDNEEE

[10] = target: CASK, O14936
Sequence of CASK, O14936 (O14936 487-570): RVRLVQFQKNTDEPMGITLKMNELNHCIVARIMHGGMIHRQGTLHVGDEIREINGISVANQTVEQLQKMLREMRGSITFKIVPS

[11] = target: Inadl_8, Q8NI35
Sequence of Inadl_8, Q8NI35 (Q8NI35 1425-1530): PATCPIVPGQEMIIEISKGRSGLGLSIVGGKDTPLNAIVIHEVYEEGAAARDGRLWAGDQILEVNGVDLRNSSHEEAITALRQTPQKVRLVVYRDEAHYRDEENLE

[12] = target: GORASP1, Q9BQQ3
Sequence of GORASP1, Q9BQQ3 (Q9BQQ3 1-208): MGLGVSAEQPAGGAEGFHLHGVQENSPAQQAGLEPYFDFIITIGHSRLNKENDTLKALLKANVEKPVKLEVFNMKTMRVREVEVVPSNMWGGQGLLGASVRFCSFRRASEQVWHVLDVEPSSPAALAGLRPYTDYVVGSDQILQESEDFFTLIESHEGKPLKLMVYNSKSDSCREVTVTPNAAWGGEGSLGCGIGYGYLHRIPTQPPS

[13] = target: SCRIB_2, Q14160
Sequence of SCRIB_2, Q14160 (Q14160 857-960): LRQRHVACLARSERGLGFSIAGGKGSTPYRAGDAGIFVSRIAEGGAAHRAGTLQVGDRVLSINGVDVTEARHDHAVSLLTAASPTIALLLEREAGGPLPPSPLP

[14] = target: T4, LIN7A, O14910
T4 sequence (O14910 103-200, limits assumed, looked up): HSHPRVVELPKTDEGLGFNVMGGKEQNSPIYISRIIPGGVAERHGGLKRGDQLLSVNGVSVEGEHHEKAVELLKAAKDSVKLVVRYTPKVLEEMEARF

[15] = target: T5, DLG3_2, Q92796
T5 sequence (Q92796 221-321, limits assumed, looked up): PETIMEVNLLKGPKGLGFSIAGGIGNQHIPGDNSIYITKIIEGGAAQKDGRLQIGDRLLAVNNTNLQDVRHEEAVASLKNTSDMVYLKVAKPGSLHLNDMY

[16] = target: FRMPD2_2, Q68DX3
Sequence of FRMPD2_2, Q68DX3 (Q68DX3 944-1038): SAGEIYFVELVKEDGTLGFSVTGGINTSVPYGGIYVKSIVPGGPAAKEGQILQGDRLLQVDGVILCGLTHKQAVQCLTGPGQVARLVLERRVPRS

[17] = target: T6, RHPN1, Q8TCX5
T6 sequence (Q8TCX5 508-602, limits assumed, looked up): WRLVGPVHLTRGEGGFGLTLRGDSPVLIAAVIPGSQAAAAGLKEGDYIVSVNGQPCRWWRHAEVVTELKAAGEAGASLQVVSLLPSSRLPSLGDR

[18] = target: T7, DLG3_1, Q92796
T7 sequence (Q92796 125-227, limits assumed, looked up): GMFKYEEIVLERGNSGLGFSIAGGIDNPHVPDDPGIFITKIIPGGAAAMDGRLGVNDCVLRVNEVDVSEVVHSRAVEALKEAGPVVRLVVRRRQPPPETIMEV

[19] = target: T8, PDZD2_2, O15018
T8 sequence (O15018 329-429, limits assumed, looked up): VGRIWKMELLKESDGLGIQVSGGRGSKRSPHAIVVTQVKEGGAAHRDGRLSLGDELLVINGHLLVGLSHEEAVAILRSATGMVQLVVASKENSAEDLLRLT

[20] = target: FRMPD2_3, Q68DX3
Sequence of FRMPD2_3, Q68DX3 (Q68DX3 1073-1166): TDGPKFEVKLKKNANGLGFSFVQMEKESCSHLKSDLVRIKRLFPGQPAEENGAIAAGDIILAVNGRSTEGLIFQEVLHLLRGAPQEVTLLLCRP

[21] = target: T9, SNTB1, Q13884
T9 sequence (Q13884 107-205, limits assumed, looked up): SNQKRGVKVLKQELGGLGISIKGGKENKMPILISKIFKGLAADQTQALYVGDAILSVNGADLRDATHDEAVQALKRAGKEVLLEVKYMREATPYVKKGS

[22] = target: MAGI3_2, Q5TCQ9
Sequence of MAGI3_2, Q5TCQ9 (Q5TCQ9 398-503): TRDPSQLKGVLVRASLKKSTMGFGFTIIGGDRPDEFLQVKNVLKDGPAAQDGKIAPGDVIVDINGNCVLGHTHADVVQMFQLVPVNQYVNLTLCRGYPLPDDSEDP

[23] = target: T10, GRIP1_7, Q9Y3R0
T10 sequence (Q9Y3R0 999-1096, limits assumed, looked up): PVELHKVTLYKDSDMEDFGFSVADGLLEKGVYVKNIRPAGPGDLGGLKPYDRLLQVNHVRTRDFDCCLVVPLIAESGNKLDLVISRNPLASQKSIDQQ

[24] = target: T11, NHERF3_4, Q5T2W1
T11 sequence (Q5T2W1 373-468, limits assumed, looked up): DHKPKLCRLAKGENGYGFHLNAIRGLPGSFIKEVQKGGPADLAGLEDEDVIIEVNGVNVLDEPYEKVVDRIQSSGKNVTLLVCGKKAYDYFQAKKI

[25] = target: FRMPD2_1, Q68DX3
Sequence of FRMPD2_1, Q68DX3 (Q68DX3 770-861): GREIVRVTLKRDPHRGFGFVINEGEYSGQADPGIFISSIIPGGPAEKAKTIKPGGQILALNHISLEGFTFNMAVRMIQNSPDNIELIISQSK

[26] = target: MAGI2_6, Q86UL8
Sequence of MAGI2_6, Q86UL8 (Q86UL8 1141-1229): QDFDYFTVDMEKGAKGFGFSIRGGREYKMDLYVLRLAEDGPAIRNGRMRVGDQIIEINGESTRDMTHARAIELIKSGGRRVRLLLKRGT

[27] = target: MAGI1_1, Q96QZ7
Sequence of MAGI1_1, Q96QZ7 (Q96QZ7 1-106): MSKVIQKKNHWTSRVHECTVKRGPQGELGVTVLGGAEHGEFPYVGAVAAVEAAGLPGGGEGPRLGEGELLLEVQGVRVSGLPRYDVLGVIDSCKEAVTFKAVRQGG

[28] = plain residues with an end cap or a label only (N-terminal biotin on a linker: ado-ado)
[29] = modified: phospho on T at position -2 from the C-terminal residue

Sequence of LAP2, Q96RT1 (Q96RT1 other isoform, or with tags, fused parts or gaps): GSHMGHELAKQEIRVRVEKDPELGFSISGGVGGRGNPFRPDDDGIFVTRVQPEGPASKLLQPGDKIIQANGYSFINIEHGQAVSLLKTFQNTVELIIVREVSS
Sequence of TJP1_2, Q07157 (Q07157 181-274): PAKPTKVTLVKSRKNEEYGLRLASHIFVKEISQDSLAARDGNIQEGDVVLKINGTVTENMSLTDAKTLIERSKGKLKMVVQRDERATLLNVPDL

Binder: MQHQRTHTRV [ZSCAN30, Q86W11]
- pKd [1, 28]: below the threshold
- pKd [2, 28]: 3.89
- pKd [3, 28]: below the threshold
- pKd [4, 28]: 3.64
- pKd [5, 28]: 3.57
- pKd [6, 28]: 4.38
- pKd [7, 28]: below the threshold
- pKd [8, 28]: 4.59
- pKd [9, 28]: below the threshold
- pKd [10, 28]: below the threshold
- pKd [11, 28]: 4.16
- pKd [12, 28]: 4.1
- pKd [13, 28]: 3.79
- pKd [14, 28]: below the threshold
- pKd [15, 28]: 4.88
- pKd [16, 28]: below the threshold
- pKd [17, 28]: 3.72
- pKd [18, 28]: 4.03
- pKd [19, 28]: 3.95
- pKd [20, 28]: 3.5
- pKd [21, 28]: 4.15
- pKd [22, 28]: 5.37
- pKd [23, 28]: below the threshold
- pKd [24, 28]: 3.51
- pKd [25, 28]: 3.88
- pKd [26, 28]: below the threshold
- pKd [27, 28]: below the threshold

Binder: SSRTRRETQL [HPV16-E6_-2P, P03126]
- pKd [1, 29]: below the threshold
- pKd [2, 29]: below the threshold
- pKd [3, 29]: below the threshold
- pKd [4, 29]: below the threshold
- pKd [5, 29]: below the threshold
- pKd [6, 29]: below the threshold
- pKd [7, 29]: below the threshold
- pKd [8, 29]: below the threshold
- pKd [9, 29]: below the threshold
- pKd [10, 29]: below the threshold
- pKd [11, 29]: below the threshold
- pKd [12, 29]: below the threshold
- pKd [13, 29]: below the threshold
- pKd [14, 29]: below the threshold
- pKd [15, 29]: below the threshold
- pKd [16, 29]: below the threshold
- pKd [17, 29]: below the threshold
- pKd [18, 29]: below the threshold
- pKd [19, 29]: below the threshold
- pKd [20, 29]: below the threshold
- pKd [21, 29]: below the threshold
- pKd [22, 29]: below the threshold
- pKd [23, 29]: below the threshold
- pKd [24, 29]: below the threshold
- pKd [25, 29]: below the threshold
- pKd [26, 29]: below the threshold
- pKd [27, 29]: below the threshold

Binder: EDGESWEYQI [TRPV6, Q9H1D0]
- pKd [1, 28]: 3.56
- pKd [2, 28]: below the threshold
- pKd [3, 28]: below the threshold
- pKd [4, 28]: below the threshold
- pKd [5, 28]: below the threshold
- pKd [6, 28]: 4.22
- pKd [7, 28]: below the threshold
- pKd [8, 28]: below the threshold
- pKd [9, 28]: below the threshold
- pKd [10, 28]: below the threshold
- pKd [11, 28]: below the threshold
- pKd [12, 28]: 4.63
- pKd [13, 28]: below the threshold
- pKd [14, 28]: below the threshold
- pKd [15, 28]: 4.02
- pKd [16, 28]: below the threshold
- pKd [17, 28]: below the threshold
- pKd [18, 28]: below the threshold
- pKd [19, 28]: 4.66
- pKd [20, 28]: below the threshold
- pKd [21, 28]: below the threshold
- pKd [22, 28]: below the threshold
- pKd [23, 28]: below the threshold
- pKd [24, 28]: below the threshold
- pKd [25, 28]: below the threshold
- pKd [26, 28]: 3.55
- pKd [27, 28]: below the threshold

Binder: RQKEVRESKC [SCN8A, Q9UQD0]
- pKd [1, 28]: below the threshold
- pKd [2, 28]: below the threshold
- pKd [3, 28]: below the threshold
- pKd [4, 28]: below the threshold
- pKd [5, 28]: below the threshold
- pKd [6, 28]: below the threshold
- pKd [7, 28]: 3.5
- pKd [8, 28]: below the threshold
- pKd [9, 28]: below the threshold
- pKd [10, 28]: below the threshold
- pKd [11, 28]: 3.95
- pKd [12, 28]: below the threshold
- pKd [13, 28]: 3.82
- pKd [14, 28]: below the threshold
- pKd [15, 28]: 4.1
- pKd [16, 28]: below the threshold
- pKd [17, 28]: below the threshold
- pKd [18, 28]: below the threshold
- pKd [19, 28]: 3.94
- pKd [20, 28]: below the threshold
- pKd [21, 28]: 4.99
- pKd [22, 28]: 4.01
- pKd [23, 28]: below the threshold
- pKd [24, 28]: below the threshold
- pKd [25, 28]: below the threshold
- pKd [26, 28]: below the threshold
- pKd [27, 28]: below the threshold
